In patent publication US20250230217A1:

Target: mesothelin-Fc fusion protein (human) (UniProt Q13421)
Test: cell-based or functional assay

Sequence of UniProt Q13421 (Q13421 other isoform, or with tags, fused parts or gaps limits assumed): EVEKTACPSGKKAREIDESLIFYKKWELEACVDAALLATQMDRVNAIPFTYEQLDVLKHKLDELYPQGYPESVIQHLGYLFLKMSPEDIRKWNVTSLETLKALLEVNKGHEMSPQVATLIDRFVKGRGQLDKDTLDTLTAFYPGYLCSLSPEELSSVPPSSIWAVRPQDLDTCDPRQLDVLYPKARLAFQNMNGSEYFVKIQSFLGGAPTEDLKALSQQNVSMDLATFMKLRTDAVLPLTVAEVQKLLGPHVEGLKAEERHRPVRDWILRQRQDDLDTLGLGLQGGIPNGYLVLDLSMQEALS

Substance | Total Population Doublings (donor 1) (population doublings) | Total Population Doublings (donor 2) (population doublings) | Total Population Doublings (donor 3) (population doublings)
mesothelin-specific 28z CAR (SS1 scFv, CD28 and CD3z domains) | 5.8 | 6.9 | 6
mesothelin-specific BBz CAR (SS1 scFv, 4-1BB and CD3z domains) | 8.8 | 8.4 | 8.4
